From publication doi:10.1101/2022.10.09.511488 (bioRxiv, 2022) come the findings set out here.

Data set [1] has as its target Huc protomer (HucSL heterodimer) (Mycobacterium smegmatis mc2155). The data set can be described thus: cryo-EM structure.
The data set “cryo-EM structure” concerns the molecule itself. The data set can be described thus: cryo-EM structure.

A word on the stoichiometry N: it is a count of units in the complex or per binding partner. On to “Huc protomer (HucSL heterodimer) (complex)”, for which, in data set [1], the stoichiometry N worked out at 2.

B1: HucM (MSMEG_2261) (natural protein)
chain: MASNGHSAGQNAIDELPDISPVDGIRRRLDDPQVAEALNSLLDHADLLAVLVKGLDGFVRRGDDIANNLTSAIGELKALNAADTPIPALAALKDVDLAGLANSLATLSGGLVKATPALNAVLDSLTDQRGAEVLSALGDALVAARTSAPPAPRGVRGMWKTLRAAAKDPDVGRGVSYLIEVARVFGSKV
Take B1: the “stoichiometry N” value in “cryo-EM structure” stood at 4.
